Data taken from US12099068B2, “Biomarkers for graft-versus-host disease” (Incyte Corporation, priority 2018, dated 2024).

B1: MPO (protein, UniProt P05164 165-745, looked up)
Myeloperoxidase: VTCPEQDKYRTITGMCNNRRSPTLGASNRAFVRWLPAEYEDGFSLPYGWTPGVKRNGFPVALARAVSNEIVRFPTDQLTPDQERSLMFMQWGQLLDHDLDFTPEPAARASFVTGVNCETSCVQQPPCFPLKIPPNDPRIKNQADCIPFFRSCPACPGSNITIRNQINALTSFVDASMVYGSEEPLARNLRNMSNQLGLLAVNQRFQDNGRALLPFDNLHDDPCLLTNRSARIPCFLAGDTRSSEMPELTSMHTLLLREHNRLATELKSLNPRWDGERLYQEARKIVGAMVQIITYRDYLPLVLGPTAMRKYLPTYRSYNDSVDPRIANVFTNAFRYGHTLIQPFMFRLDNRYQPMEPNPRVPLSRVFFASWRVVLEGGIDPILRGLMATPAKLNRQNQIAVDEIRERLFEQVMRIGLDLPALNMQRSRDHGLPGYNAWRRFCGLPQPETVGQLGTVLRNLKLARKLMEQYGTPNNIDIWMGGVSEPLKRKGRVGPLLACIIGTQFRKLRDGDRFWWENEGVFSMQQRQALAQISLPRIICDNTGITTVSKNNIFMSNSYPRDFVNCSTLPALNLASWREAS
B2: ANGPTL3 (protein, UniProt Q9Y5C1 17-460, looked up)
Angiopoietin-related protein 3: SRIDQDNSSFDSLSPEPKSRFAMLDDVKILANGLLQLGHGLKDFVHKTKGQINDIFQKLNIFDQSFYDLSLQTSEIKEEEKELRRTTYKLQVKNEEVKNMSLELNSKLESLLEEKILLQQKVKYLEEQLTNLIQNQPETPEHPEVTSLKTFVEKQDNSIKDLLQTVEDQYKQLNQQHSQIKEIENQLRRTSIQEPTEISLSSKPRAPRTTPFLQLNEIRNVKHDGIPAECTTIYNRGEHTSGMYAIRPSNSQVFHVYCDVISGSPWTLIQHRIDGSQNFNETWENYKYGFGRLDGEFWLGLEKIYSIVKQSNYVLRIELEDWKDNKHYIEYSFYLGNHETNYTLHLVAITGNVPNAIPENKDLVFSTWDHKAKGHFNCPEGYSGGWWWHDECGENNLNGKYNKPRAKSKPERRRGLSWKSQNGRLYSIKSTKMLIHPTDSESFE
B3: SIT1 (protein, UniProt Q9Y3P8 25-196, looked up)
Signaling …: DNCTDLLALGIPSITQAWGLWVLLGAVTLLFLISLAAHLSQWTRGRSRSHPGQGRSGESVEEVPLYGNLHYLQTGRLSQDPEPDQQDPTLGGPARAAEEVMCYTSLQLRPPQGRIPGPGTPVKYSEVVLDSEPKSQASGPEPELYASVCAQTRRARASFPDQAYANSQPAAS
B4: ICAM3 (protein, UniProt P32942 30-547, looked up)
Intercellular adhesion …: QEFLLRVEPQNPVLSAGGSLFVNCSTDCPSSEKIALETSLSKELVASGMGWAAFNLSNVTGNSRILCSVYCNGSQITGSSNITVYRLPERVELAPLPPWQPVGQNFTLRCQVEDGSPRTSLTVVLLRWEEELSRQPAVEEPAEVTATVLASRDDHGAPFSCRTELDMQPQGLGLFVNTSAPRQLRTFVLPVTPPRLVAPRFLEVETSWPVDCTLDGLFPASEAQVYLALGDQMLNATVMNHGDTLTATATATARADQEGAREIVCNVTLGGERREARENLTVFSFLGPIVNLSEPTAHEGSTVTVSCMAGARVQVTLDGVPAAAPGQPAQLQLNATESDDGRSFFCSATLEVDGEFLHRNSSVQLRVLYGPKIDRATCPQHLKWKDKTRHVLQCQARGNPYPELRCLKEGSSREVPVGIPFFVNVTHNGTYQCQASSSRGKYTLVVVMDIEAGSSHFVPVFVAVLLTLGVVTIVLALMYVFREHQRSGSYHVREESTYLPLTSMQPTEAMGEEPSRAE
B5: B4GAT1 (protein, UniProt O43505 1-415, looked up)
Beta-1,4-glucuronyltransferase …: MQMSYAIRCAFYQLLLAALMLVAMLQLLYLSLLSGLHGQEEQDQYFEFFPPSPRSVDQVKAQLRTALASGGVLDASGDYRVYRGLLKTTMDPNDVILATHASVDNLLHLSGLLERWEGPLSVSVFAATKEEAQLATVLAYALSSHCPDMRARVAMHLVCPSRYEAAVPDPREPGEFALLRSCQEVFDKLARVAQPGINYALGTNVSYPNNLLRNLAREGANYALVIDVDMVPSEGLWRGLREMLDQSNQWGGTALVVPAFEIRRARRMPMNKNELVQLYQVGEVRPFYYGLCTPCQAPTNYSRWVNLPEESLLRPAYVVPWQDPWEPFYVAGGKVPTFDERFRQYGFNRISQACELHVAGFDFEVLNEGFLVHKGFKEALKFHPQKEAENQHNKILYRQFKQELKAKYPNSPRRC

Tested on: plasma proteins
Assay: Plasma proteins modulated between baseline and day 28 in responders (CR, VGPR, PR; n = 19), Example 6 (Table 13)
Format: in vivo, human
Conditions: plasma protein (OLINK NPX); responders (CR, VGPR, PR; n = 19); itacitinib 200 mg or 300 mg QD with corticosteroids; day 28 vs baseline
Outline: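 Plasma at baseline/screening and day 28 profiled for >1000 proteins by OLINK proximity extension assay, reported as NPX (log2). Steroid-naive and steroid-refractory patients pooled. Paired and unpaired t tests, ANOVA and Pearson correlation applied; significance at P<0.05.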

Molecule	Fold Change, Decreased Expression from Baseline to Day 28	Fold Change, Increased Expression from Baseline to Day 28
B1	−1.8431	–
B2	–	1.2673
B3	−1.5501	–
B4	−1.464	–
B5	–	1.2795
